Laboratory results published in paper doi:10.1101/2021.02.27.433207.

Key:
ParA2 (Vibrio cholerae) = assay: EMSA
[1] = target: Vibrio cholerae chromosome 2 ParA2 (Vibrio cholerae); assay: SEC-MALS

Substance | Kd (ParA2 (Vibrio cholerae)) | stoichiometry N [1]
Cy3-62-bp DNA | 1000 nM | –
Vibrio cholerae chromosome 2 ParA2 (enzyme) | – | 2
